# Data reported in paper PMC7060200, “Selective Binding of HSC70 and its Co-Chaperones to Structural Hotspots on CFTR” (Scientific Reports, 2020).
# Ends that are not written are not given here. * marks the point of attachment. Biotin = O=C1N[C@H]2[C@H](CS[C@H]2CCCCC(=O)*)N1
# Key:
# Conditions in all cases: both partners purified
# [1] = target: T1, HSC70 (HSPA8), His-tagged (UniProt P11142 1-646); assay: ELISA; titration of increasing concentrations of chaperone on immobilised biotinylated peptide; HSC70 with ATP; apparent Kd from linearised binding curves
# T1 construct: HSC70 (HSPA8), the constitutive form of HSP70
# T1 sequence (P11142 whole entry): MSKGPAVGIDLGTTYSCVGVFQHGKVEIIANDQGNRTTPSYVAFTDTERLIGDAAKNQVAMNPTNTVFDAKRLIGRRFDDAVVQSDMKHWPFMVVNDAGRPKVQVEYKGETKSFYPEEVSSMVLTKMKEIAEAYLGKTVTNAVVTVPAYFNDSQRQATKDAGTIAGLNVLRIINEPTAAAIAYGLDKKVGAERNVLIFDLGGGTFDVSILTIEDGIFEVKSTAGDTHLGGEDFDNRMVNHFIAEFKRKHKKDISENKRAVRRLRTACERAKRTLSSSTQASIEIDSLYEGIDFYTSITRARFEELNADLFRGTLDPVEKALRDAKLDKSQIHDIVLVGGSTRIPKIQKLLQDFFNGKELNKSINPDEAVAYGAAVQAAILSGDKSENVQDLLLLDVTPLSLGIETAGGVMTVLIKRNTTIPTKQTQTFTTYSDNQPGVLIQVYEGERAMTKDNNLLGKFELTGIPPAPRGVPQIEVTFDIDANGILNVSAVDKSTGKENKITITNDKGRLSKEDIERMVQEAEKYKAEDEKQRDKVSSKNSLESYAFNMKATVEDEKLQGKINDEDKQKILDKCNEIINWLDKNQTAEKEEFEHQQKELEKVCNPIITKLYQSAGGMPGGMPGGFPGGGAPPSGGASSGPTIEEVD
# [2] = target: T2, DNAJA1 (DJA1), His-tagged (UniProt P31689 1-397); assay: as above
# T2 construct: DNAJA1, J-domain co-chaperone of HSC70
# [3] = target: T3, DNAJA2 (DJA2), His-tagged (UniProt O60884 1-412); assay: as above
# T3 construct: DNAJA2, J-domain co-chaperone of HSC70
# T3 sequence (O60884 whole entry): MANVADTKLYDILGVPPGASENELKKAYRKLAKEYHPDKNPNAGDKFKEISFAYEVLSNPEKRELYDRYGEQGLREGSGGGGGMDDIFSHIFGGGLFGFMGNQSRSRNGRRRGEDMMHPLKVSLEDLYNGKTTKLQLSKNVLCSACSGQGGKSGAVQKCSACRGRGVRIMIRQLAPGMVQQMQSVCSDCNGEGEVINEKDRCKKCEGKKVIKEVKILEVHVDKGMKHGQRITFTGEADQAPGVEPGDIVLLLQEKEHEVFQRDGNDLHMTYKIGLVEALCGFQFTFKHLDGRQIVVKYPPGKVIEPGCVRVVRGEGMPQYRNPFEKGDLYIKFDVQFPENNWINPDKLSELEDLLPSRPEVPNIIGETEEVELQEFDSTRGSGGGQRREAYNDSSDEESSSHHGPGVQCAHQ
# [4] = target: T1, HSC70 (HSPA8), His-tagged; assay: ELISA; competition: 1 μM chaperone mixed with soluble peptide (titrated up to 100 μM, or fixed 100 μM in the screens) and bound to immobilised 1097-L; Kd of the competing peptide from linearised competition curves
# [5] = target: T2, DNAJA1 (DJA1), His-tagged; assay: as above
# [6] = target: T3, DNAJA2 (DJA2), His-tagged; assay: as above
Binder,Kd [4] [nM],Kd [6] [nM],other results
"Biotin-GSGSRTLKQAFADCTVILC (cysteine pairing not given here, linker; CFTR, 15-mer numbered by its middle residue 1393, from NBD2; source: synthetic peptide (Mimotopes, PepSet purity)) [CFTR peptide 1393-L, biotinylated (library form)]",,,Kd [1]: 9060 nM; Kd [2]: 1500 nM; Kd [3]: 1120 nM
"Biotin-GSGSTVILCEHRIEAMLEC (cysteine pairing not given here, linker; CFTR, 15-mer numbered by its middle residue 1403, from NBD2; source: synthetic peptide (Mimotopes, PepSet purity)) [CFTR peptide 1403-L, biotinylated (library form)]",,,Kd [1]: 11100 nM; Kd [2]: 1490 nM; Kd [3]: 1190 nM
"FGVIPQKVFIFSGTF (peptide, UniProt P13569 1286-1300, looked up, source: synthetic peptide (Lifetein, unmodified, >85% purity)) [CFTR peptide 1293-L, soluble unmodified]",2020,,
"RTLKQAFADCTVILC (peptide, UniProt P13569 1386-1400, looked up, CFTR, 15-mer numbered by its middle residue 1393, from NBD2; source: synthetic peptide (Lifetein, unmodified, >85% purity)) [CFTR peptide 1393-L, soluble unmodified]",1040,1490,Kd [5]: 15700 nM
"TVILCEHRIEAMLEC (peptide, UniProt P13569 1396-1410, looked up, CFTR, 15-mer numbered by its middle residue 1403, from NBD2; source: synthetic peptide (Lifetein, unmodified, >85% purity)) [CFTR peptide 1403-L, soluble unmodified]",2660,994,Kd [5]: 9150 nM
"SKLFFSWTR (peptide, UniProt P13569 13-21, looked up, CFTR, 9-mer numbered by its central residue 17, from the NT; source: synthetic peptide (Lifetein, unmodified, >85% purity)) [CFTR peptide 17-S]",1760,,
"TSLLMVIMG (peptide, UniProt P13569 465-473, looked up, source: synthetic peptide (Lifetein, unmodified, >85% purity)) [CFTR peptide 469-S]",1560,4820,
"DKILILHEG (peptide, UniProt P13569 614-622, looked up, source: synthetic peptide (Lifetein, unmodified, >85% purity)) [CFTR peptide 618-S]",3730,,
"LRWFQMRIE (peptide, UniProt P13569 1096-1104, looked up, CFTR, 9-mer numbered by its central residue 1100, L4 side of the NT-L4 interface; source: synthetic peptide (Lifetein, unmodified, >85% purity)) [CFTR peptide 1100-S]",,8330,
"QKVFIFSGT (peptide, UniProt P13569 1291-1299, looked up, source: synthetic peptide (Lifetein, unmodified, >85% purity)) [CFTR peptide 1295-S]",1260,,
"DCTVILCEH (peptide, UniProt P13569 1394-1402, looked up, source: synthetic peptide (Lifetein, unmodified, >85% purity)) [CFTR peptide 1398-S]",900,4450,Kd [5]: 18300 nM
